Test results from PMC5430804, “Structural and biochemical insights of CypA and AIF interaction” (Scientific Reports, 2017).
*: point of attachment. Dabcyl = CN(C)c1ccc(N=Nc2ccc(C(=O)*)cc2)cc1; EDANS = O=S(=O)(O)c1cccc2c(NCCN*)cccc12

Legend:
AIF(370-394) = molecular target: T1, AIF(370-394) (Homo sapiens, UniProt O95831); assay: EnSpire label-free direct binding to AIF(370-394); settings: for KD: Corning Epic/EnSpire label-free, biotinylated AIF(370-394) immobilized on streptavidin-coated biosensor, PBS 1X pH 7.4, readings over 1 hour, means of triplicates; for binding / affinity for AIF(370-394), in words: EnSpire label-free
T1 construct: host or cells: chemical synthesis (synthetic peptide)
Experimental: Although peptide-peptide interaction insights might be prejudiced by the lack of appropriate 3D structures and require additional experimental assessment with full length proteins, they can mimic and anticipate in several cases real interactions. […] KD values determined by this approach are reported in Table 1 and the binding curves are shown in Supplementary Fig. S4.
(§1) Direct binding assays were performed with the Corning Epic label-free technology with the EnSpire Multimode Plate Reader (PerkinElmer, Rodgau, Germany) as reported in literature.1 Briefly, […]
(§2) µg/mL streptavidin solution in 20 mM sodium acetate at pH 4.0, for 16 h at 4 °C. The microplate was subsequently washed three times with phosphate-buffered saline (PBS 1X, pH 7.4). After […]
(§3) assay buffer (PBS 1X, pH 7.4) for 2 hours followed by three washing steps in PBS 1X at pH 7.4.
(§4) After 2 h incubation, a baseline reading was recorded. Then 30 µL of peptide samples were dispensed in the plate. The final readings were taken over a period of 1 hour. Label-free responses were measured as shifts in reflected wavelength and were expressed in picometers (Fig. S4). The difference between the last baseline measurements and the maximum signal was used to determine the KD values (Table 1 in the main text). […]
(§5) biosensor by adding directly 100 µg/mL of protein in 20 mM sodium acetate pH 4.0, for 16 h at 4 […]
(§6) by adding 200 µg/mL of protein in 20 mM sodium acetate pH 5.5, for 16 h at 4 °C. […]
(§7) the procedure described above. Results were analyzed using the EnSpire label-free user interface software. Plots were generated using GraphPad PrismR V-5.01 (GraphPad Software, La Jolla, CA). […]
Graphs were generated using GraphPad PrismR V-5.01 (GraphPad Software, La Jolla, CA). Results are means of triplicates.
(§8) (1 picture or pasted object on this page, not shown here)

AIF(Δ1-121) = AIF(Δ1-121) (Homo sapiens, UniProt O95831); assay: EnSpire label-free direct binding to AIF(Δ1-121); settings: for KD: Corning Epic/EnSpire label-free, AIF(Δ1-121) immobilized on biosensor (100 µg/mL, 20 mM sodium acetate pH 4.0), PBS 1X pH 7.4, readings over 1 hour, means of triplicates
Experimental: as §1, §2, §3, §4, §5, §6, §7
Results were analyzed using the EnSpire label-free user interface software. Graphs were generated using GraphPad PrismR V-5.01 (GraphPad Software, La Jolla, CA). Results are means of triplicates.
as §8

CypA [1] = molecular target: T2, CypA (Homo sapiens, UniProt P62937); assay: Fluorescence quenching binding of FRET substrate; settings: excitation 340 nm, emission 510 nm
T2 construct: His tag (6His); made in house
Text: probe clusters) and CS003 (11 probe clusters), CS004 (7 probe clusters), CS005 (4 probe clusters), CS006 (4 probe clusters) and CS007 (4 probe clusters), CS008 (3 probe clusters), CS009 (2 probe clusters). The top scoring ligand-binding site identified by FTMap on CypA is the active site, while the second, CS001 (Figure S7) is constituted by loops connecting α1-β3 (G42-C52) and a portion of the loop connecting β4-β5 (G65-S99), close to the catalytic site of CypA within the same interaction surface identified by NMR studies and mapped by trypsin MS-based foot-printing and contains 19 probe clusters. […]
Fluorescence-based assays
Fluorescence quenching assays were performed using the FRET substrate Ac-EK(Dabcyl)PPFAE(EDANS)KA-NH2 (MW 1556.2 amu) reported in literature.6 At 0.23 ng/μL (0.15 μM) the substrate provides a significant fluorescence emission at 510 nm compared to the buffers used in the assay (PBS 1X) (Figure S8A). […] Kinetic constants were determined by fitting data of fluorescence maxima at 510 nm of EDANS upon protein additions. […]
(Fig. S8B, red and blue lines, respectively) on the CypA/substrate complex formation were determined using a 10-fold excess (1.5 μM) of compounds. […]
Figure S8. Binding assay based on fluorescence quenching. (A) Fluorescence emission spectrum of CypA substrate. Samples were excited at 340 nm, and the emission in the range of 450-600 nm was measured. […]

CypA/CsA complex = assay: NMR competition with preformed CypA/CsA complex; format: binding; settings: AIF(370-394) gradually added to preformed CypA/CsA complex
CypA and CypA^R55A [2] = assay: EnSpire label-free binding of AIF to immobilized CypA and CypA^R55A; settings: CypA and CypAR55A immobilized, means of triplicates
Experimental: as §1, §2, §3, §4
biosensor by adding directly 100 µg/mL of protein in 20 mM sodium acetate pH 4.0, for 16 h at 4 °C (Fig. S5). […]
the procedure described above. Results were analyzed using the EnSpire label-free user interface software. […]
coated with CypA wild type with and without the CsA. Results were analyzed using the EnSpire label-free user interface software. […]
(B). Results were analyzed using the EnSpire label-free user interface software. […]

CypA [3] = molecular target: T2, CypA; settings: binding to CypA; cited from earlier work
Text: CSPs were quantified in terms of ΔδHNavs and classified as strong, medium and weak (see Methods section for details).

neuronal cells = system: neuronal cells; set-up: method as in PMID 24434516; settings: cited from earlier work
[4] = system: CypA-CsA preformed complex; assay: ITC competition: AIF(370-394) titrated onto CypA-CsA preformed complex; format: binding; settings: AIF(370-394) 5 to 500 μM titrated onto CypA-CsA complex, 25 °C
Experimental: Figure 5 ITC binding assay. […] The bottom panels show the integrated heat of each injection after correction for the heat of dilution of ligands. Curves represent the best fit to a single-site binding model. (C, D) ITC competition assays.
ITC experiments were performed at 25 °C using a MicroCal ITC200 (GE Healthcare Bio-Sciences AB, Sweden). Protein and peptide samples were dialyzed in phosphate saline buffer (PBS 1X) containing 1 mM DTT, pH 7.4. […] Data were analyzed using the “Origin” software (MicroCal). The dissociation constant (KD), molar binding stoichiometry (n) and the binding enthalpy (ΔH), entropy (ΔS) and Gibbs free energy (ΔG) were determined by fitting the binding isotherm to a one-site model with MicroCal Origin software. All ITC experiments were performed in triplicate.

CypA and CypA^R55A [5] = assay: Competition of CypA/substrate complex formation (fluorescence quenching); format: binding
Text: Results are means of triplicates.
as §8

AIF(Δ1-121)/CypA complex = system: AIF(Δ1-121)/CypA complex; set-up: method as in PMID 24434516; settings: cited from earlier work

T1 sequence (O95831 370-394 limits assumed): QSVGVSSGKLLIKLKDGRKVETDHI
Chain of AIF(Δ1-121) (O95831 122-613, stated change not applied): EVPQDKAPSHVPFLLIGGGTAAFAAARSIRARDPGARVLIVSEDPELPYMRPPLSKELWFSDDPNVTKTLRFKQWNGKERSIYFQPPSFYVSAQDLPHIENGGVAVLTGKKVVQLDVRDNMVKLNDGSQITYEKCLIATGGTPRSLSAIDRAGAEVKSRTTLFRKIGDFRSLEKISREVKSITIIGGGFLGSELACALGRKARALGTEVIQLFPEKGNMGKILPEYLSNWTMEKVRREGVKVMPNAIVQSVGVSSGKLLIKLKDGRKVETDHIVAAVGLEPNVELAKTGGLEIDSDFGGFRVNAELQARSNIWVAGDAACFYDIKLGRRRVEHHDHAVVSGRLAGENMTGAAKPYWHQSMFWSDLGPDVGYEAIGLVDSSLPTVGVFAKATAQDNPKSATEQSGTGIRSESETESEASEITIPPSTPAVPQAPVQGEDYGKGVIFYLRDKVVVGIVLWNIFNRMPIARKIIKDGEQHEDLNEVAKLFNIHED
T2 sequence (P62937 whole entry): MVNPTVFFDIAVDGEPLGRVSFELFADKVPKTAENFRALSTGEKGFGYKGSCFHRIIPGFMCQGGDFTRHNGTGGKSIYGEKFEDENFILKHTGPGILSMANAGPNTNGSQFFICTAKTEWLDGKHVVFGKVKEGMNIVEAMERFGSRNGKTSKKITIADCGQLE

In the case of CypA wild type: His-tagged CypA protein, the Kd (AIF(370-394); full-length protein: CypA / CypAR55A immobilized (200 µg/mL, sodium acetate pH 5.5), AIF(370-394) added at several concentrations, means of triplicates (Fig. S7A)) is reported as 3000 ± 600 nM.

With “CypA(154-165): CypA-derived synthetic peptide, residues 154-165 (KKITIADCGQLE)” the KD (AIF(Δ1-121)) was “No binding”, the KD (AIF(370-394)) was “No binding” and the “binding / affinity for AIF(370-394), in words” value (AIF(370-394)) was “did not interact with AIF(370-394)”.

In the case of “Ac-EK(Dabcyl)PPFAE(EDANS)KA-NH2 (SMILES CC(=O)N[C@@H](CCC(=O)O)C(=O)N[C@@H](CCCCNC(=O)c1ccc(N=Nc2ccc(N(C)C)cc2)cc1)C(=O)N1CCC[C@H]1C(=O)N1CCC[C@H]1C(=O)N[C@@H](Cc1ccccc1)C(=O)N[C@@H](C)C(=O)N[C@@H](CCC(=O)NCCNc1cccc2c(S(=O)(=O)O)cccc12)C(=O)N[C@@H](CCCCN)C(=O)N[C@@H](C)C(N)=O) [CypA substrate, FRET substrate of CypA, MW 1556.2 amu]”, the “Δfluorescence emission vs buffer” value (CypA [1]) is reported as 319 a. u.

For “CypA(55-69)R69: CypA(55-69) with R69 replaced by alanine (RIIPGFMCQGGDFTA)”, the “binding / affinity for AIF(Δ1-121), in words” value (AIF(Δ1-121); EnSpire label-free) was “completely abrogated the binding to both the AIF forms”, the KD (AIF(370-394)) was “No binding” and the “binding / affinity for AIF(370-394), in words” value (AIF(370-394)) was “completely abrogated the binding to both the AIF forms”.

For `CC[C@H](C)[C@H](NC(=O)[C@H](Cc1c[nH]cn1)NC(=O)[C@H](CC(=O)O)NC(=O)[C@@H](NC(=O)[C@H](CCC(=O)O)NC(=O)[C@@H](NC(=O)[C@H](CCCCN)NC(=O)[C@H](CCCNC(=N)N)NC(=O)CNC(=O)[C@H](CC(=O)O)NC(=O)[C@H](CCCCN)NC(=O)[C@H](CC(C)C)NC(=O)[C@H](CCCCN)NC(=O)[C@@H](NC(=O)[C@H](CC(C)C)NC(=O)[C@H](CC(C)C)NC(=O)[C@H](CCCCN)NC(=O)CNC(=O)[C@H](CO)NC(=O)[C@H](CO)NC(=O)[C@@H](NC(=O)CNC(=O)[C@@H](NC(=O)[C@H](CO)NC(=O)[C@H](CCC(N)=O)NC(C)=O)C(C)C)C(C)C)[C@@H](C)CC)C(C)C)[C@@H](C)O)C(N)=O` [AIF(370-394)], the “AIF(370-394) interaction with CypA after CsA binding” value (CypA/CsA complex) is listed as “CsA binding to CypA did not fully abrogate the AIF(370-394) interaction with CypA”, the “binding to CypA versus CypA^R55A” value (CypA and CypA^R55A [2]) is listed as “bound CypA and CypA^R55A in a similar way” and the “KD, in words” value (CypA [3]) is listed as “low micromolar range”. The neuroprotection (neuronal cells; AIF(Δ1-121)/CypA-mediated glutamate-induced cell death) was “pronounced neuroprotection”, the “nuclear translocation of AIF and CypA” value (neuronal cells) was “blocking the nuclear translocation of the two proteins” and the heat exchange [4] was “no apparent heat exchange was observed”. For the same compound, the “effect on CypA and CypA^R55A binding to substrate” value (CypA and CypA^R55A [5]; 10-fold excess (1.5 μM) of compound, fluorescence quenching, 510 nm, triplicates) was “unable to prevent the binding of both CypA and CypA^R55A to the substrate”, the “effect on enzyme-substrate recognition” value (CypA and CypA^R55A [5]; larger excess of AIF(370-394), not shown) was “does impair the enzyme-substrate recognition” and the “inhibition of AIF(Δ1-121)/CypA complex formation in vitro” value (AIF(Δ1-121)/CypA complex) was “able to inhibit the AIF(Δ1-121)/CypA complex formation in vitro”.

With “AIF(Δ1-121): apoptogenic (pro-apoptotic) form of AIF” the “binding to CypA versus CypA^R55A” value (CypA and CypA^R55A [2]) was “bound CypA and CypA^R55A in a similar way”.

With “CypA(136-150): CypA-derived synthetic peptide, residues 136-150 (MNIVEAMERFGSRNG)” the KD (AIF(Δ1-121)) was “No binding”, the KD (AIF(370-394)) was “No binding” and the “binding / affinity for AIF(370-394), in words” value (AIF(370-394)) was “did not interact with AIF(370-394)”.

For “CypA(83-90): CypA-derived synthetic peptide, residues 83-90 (FEDENFIL)”, the KD (AIF(Δ1-121)) was “No binding” and the KD (AIF(370-394)) was “No binding”.
